IntAct's records for PubMed 31515488

B1: Flavin-containing monooxygenase 3 (Homo sapiens), P31513 (parent)
chain: MGKKVAIIGAGVSGLASIRSCLEEGLEPTCFEKSNDIGGLWKFSDHAEEGRASIYKSVFSNSSKEMMCFPDFPFPDDFPNFMHNSKIQEYIIAFAKEKNLLKYIQFKTFVSSVNKHPDFATTGQWDVTTERDGKKESAVFDAVMVCSGHHVYPNLPKESFPGLNHFKGKCFHSRDYKEPGVFNGKRVLVVGLGNSGCDIATELSRTAEQVMISSRSGSWVMSRVWDNGYPWDMLLVTRFGTFLKNNLPTAISDWLYVKQMNARFKHENYGLMPLNGVLRKEPVFNDELPASILCGIVSVKPNVKEFTETSAIFEDGTIFEGIDCVIFATGYSFAYPFLDESIIKSRNNEIILFKGVFPPLLEKSTIAVIGFVQSLGAAIPTVDLQSRWAAQVIKGTCTLPSMEDMMNDINEKMEKKRKWFGKSETIQTDYIVYMDELSSFIGAKPNIPWLFLTDPKLAMEVYFGPCSPYQFRLVGPGQWPGARNAILTQWDRSLKPMQTRVVGRLQKPCFFFHWLKLFAIPILLIAVFLVLT
partner: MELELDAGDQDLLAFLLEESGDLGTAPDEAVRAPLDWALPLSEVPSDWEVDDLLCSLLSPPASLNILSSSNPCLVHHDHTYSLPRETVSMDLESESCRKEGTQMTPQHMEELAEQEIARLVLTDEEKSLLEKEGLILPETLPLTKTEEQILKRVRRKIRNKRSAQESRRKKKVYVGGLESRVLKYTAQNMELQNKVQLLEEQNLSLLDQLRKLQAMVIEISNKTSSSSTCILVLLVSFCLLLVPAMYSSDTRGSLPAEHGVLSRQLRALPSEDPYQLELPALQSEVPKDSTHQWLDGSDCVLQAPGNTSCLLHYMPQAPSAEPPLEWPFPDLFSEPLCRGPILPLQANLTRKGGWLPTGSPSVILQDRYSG
B2: Cyclin-dependent kinase 4 inhibitor D (Homo sapiens), P55273 (parent)
chain: MLLEEVRAGDRLSGAAARGDVQEVRRLLHRELVHPDALNRFGKTALQVMMFGSTAIALELLKQGASPNVQDTSGTSPVHDAARTGFLDTLKVLVEHGADVNVPDGTGALPIHLAVQEGHTAVVSFLAAESDLHRRDARGLTPLELALQRGAQDLVDILQGHMVAPL
partner: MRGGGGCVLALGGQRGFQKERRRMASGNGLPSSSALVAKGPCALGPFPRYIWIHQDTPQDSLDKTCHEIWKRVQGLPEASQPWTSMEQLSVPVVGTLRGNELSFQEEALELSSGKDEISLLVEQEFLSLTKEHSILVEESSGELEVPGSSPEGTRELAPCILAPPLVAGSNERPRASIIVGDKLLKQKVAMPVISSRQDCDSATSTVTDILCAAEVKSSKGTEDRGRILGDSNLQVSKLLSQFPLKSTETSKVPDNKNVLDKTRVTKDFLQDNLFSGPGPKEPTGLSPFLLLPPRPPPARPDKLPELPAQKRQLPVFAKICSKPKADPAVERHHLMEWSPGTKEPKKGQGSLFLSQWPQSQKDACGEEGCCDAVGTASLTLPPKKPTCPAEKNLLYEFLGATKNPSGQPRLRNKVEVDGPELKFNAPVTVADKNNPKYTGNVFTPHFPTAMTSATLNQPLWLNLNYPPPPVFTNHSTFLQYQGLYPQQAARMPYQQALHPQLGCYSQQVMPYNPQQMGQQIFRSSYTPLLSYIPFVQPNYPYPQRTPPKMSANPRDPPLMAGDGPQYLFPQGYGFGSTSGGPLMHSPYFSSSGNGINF
B3: Arginine/serine-rich protein 1 (Homo sapiens), Q9BUV0 (parent)
chain: MSNYVNDMWPGSPQEKDSPSTSRSGGSSRLSSRSRSRSFSRSSRSHSRVSSRFSSRSRRSKSRSRSRRRHQRKYRRYSRSYSRSRSRSRSRRYRERRYGFTRRYYRSPSRYRSRSRSRSRSRGRSYCGRAYAIARGQRYYGFGRTVYPEEHSRWRDRSRTRSRSRTPFRLSEKDRMELLEIAKTNAAKALGTTNIDLPASLRTVPSAKETSRGIGVSSNGAKPELSEKVTEDGTRNPNEKPTQQRSIAFSSNNSVAKPIQKSAKAATEEASSRSPKIDQKKSPYGLWIPI
B4: Polyunsaturated fatty acid 5-lipoxygenase (Homo sapiens), P09917 (parent)
chain: MPSYTVTVATGSQWFAGTDDYIYLSLVGSAGCSEKHLLDKPFYNDFERGAVDSYDVTVDEELGEIQLVRIEKRKYWLNDDWYLKYITLKTPHGDYIEFPCYRWITGDVEVVLRDGRAKLARDDQIHILKQHRRKELETRQKQYRWMEWNPGFPLSIDAKCHKDLPRDIQFDSEKGVDFVLNYSKAMENLFINRFMHMFQSSWNDFADFEKIFVKISNTISERVMNHWQEDLMFGYQFLNGCNPVLIRRCTELPEKLPVTTEMVECSLERQLSLEQEVQQGNIFIVDFELLDGIDANKTDPCTLQFLAAPICLLYKNLANKIVPIAIQLNQIPGDENPIFLPSDAKYDWLLAKIWVRSSDFHVHQTITHLLRTHLVSEVFGIAMYRQLPAVHPIFKLLVAHVRFTIAINTKAREQLICECGLFDKANATGGGGHVQMVQRAMKDLTYASLCFPEAIKARGMESKEDIPYYFYRDDGLLVWEAIRTFTAEVVDIYYEGDQVVEEDPELQDFVNDVYVYGMRGRKSSGFPKSVKSREQLSEYLTVVIFTASAQHAAVNFGQYDWCSWIPNAPPTMRAPPPTAKGVVTIEQIVDTLPDRGRSCWHLGAVWALSQFQENELFLGMYPEEHFIEKPVKEAMARFRKNLEAIVSVIAERNKKKQLPYYYLSPDRIPNSVAI

Variants of: B1
Conditions: with creb3_human CREB3, O43889

effect of a mutation on the interaction | Variant
with no effect | MGKKVAIIGAGVSGLASIRSCLEEGLEPTCFEKSNDIGGLWKFSDHAEEGRASIYKSVFSNSSKEMMCFPDFPFPDDFPNFMHNSKIQEYIIAFAKEKNLLKYIQFKTFVSSVNKHPDFATTGQWDVTTERDGKKESAVFDAVMVCSGHHVYPNLPKESFPGLNHFKGKCFHSRDYKEPVVFNGKRVLVVGLGNSGCDIATELSRTAEQVMISSRSGSWVMSRVWDNGYPWDMLLVTRFGTFLKNNLPTAISDWLYVKQMNARFKHENYGLMPLNGVLRKEPVFNDELPASILCGIVSVKPNVKEFTETSAIFEDGTIFEGIDCVIFATGYSFAYPFLDESIIKSRNNEIILFKGVFPPLLEKSTIAVIGFVQSLGAAIPTVDLQSRWAAQVIKGTCTLPSMEDMMNDINEKMEKKRKWFGKSETIQTDYIVYMDELSSFIGAKPNIPWLFLTDPKLAMEVYFGPCSPYQFRLVGPGQWPGARNAILTQWDRSLKPMQTRVVGRLQKPCFFFHWLKLFAIPILLIAVFLVLT [G180V]
with no effect | E158K

Variants of: B2
Conditions: with ca094_human C1orf94, Q6P1W5

effect of a mutation on the interaction | Variant
with no effect | MLLEEVRAGDRLSGAAARGDVQEVRRLLHRELVHPDALNRFGKTALQVMMFGSTAIALELLKQGASPNVQDTSGTSPVHDAARTGFLDTLKVLVEHGADVNVPDGTGALPIHLAVQEGHTAVVSFLAAESDLHRRDARGLTSLELALQRGAQDLVDILQGHMVAPL [P142S]

Variants of: B3
Conditions: with clk2_human CLK2, P49760
Chain of clk2_human CLK2, P49760 (P49760 whole entry, looked up): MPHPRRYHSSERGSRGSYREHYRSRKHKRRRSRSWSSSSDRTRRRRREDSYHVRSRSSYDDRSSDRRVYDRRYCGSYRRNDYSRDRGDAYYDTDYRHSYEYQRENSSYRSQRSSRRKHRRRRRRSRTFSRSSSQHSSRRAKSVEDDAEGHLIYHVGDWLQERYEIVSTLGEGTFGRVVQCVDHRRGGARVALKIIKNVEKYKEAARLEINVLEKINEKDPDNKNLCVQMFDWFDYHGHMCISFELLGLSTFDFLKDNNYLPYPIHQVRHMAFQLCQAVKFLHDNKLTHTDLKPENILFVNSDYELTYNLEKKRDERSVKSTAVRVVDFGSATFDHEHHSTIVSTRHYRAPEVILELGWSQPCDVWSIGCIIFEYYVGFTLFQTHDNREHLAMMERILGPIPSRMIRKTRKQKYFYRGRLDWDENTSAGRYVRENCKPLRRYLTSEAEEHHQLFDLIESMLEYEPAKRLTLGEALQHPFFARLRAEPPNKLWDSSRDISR

effect of a mutation on the interaction | Variant
with no effect | MSNYVNDMWPGSPQEKDSPSTSRSGGSSRLSSRSRSRSFSRSSRSHSRVSSRFSSRSRRSKSRSRSRRRHQRKYRRYSRSYSRSRSRSRSRRYRERRYGFTRRYYRSPSRYRSRSRSRSRSRGRSYCGRAYAIARGQRYYGFGRTVHPEEHSRWRDRSRTRSRSRTPFRLSEKDRMELLEIAKTNAAKALGTTNIDLPASLRTVPSAKETSRGIGVSSNGAKPELSEKVTEDGTRNPNEKPTQQRSIAFSSNNSVAKPIQKSAKAATEEASSRSPKIDQKKSPYGLWIPI [Y147H]
with no effect | MSNYVNDMWPGSPQEKDSPLTSRSGGSSRLSSRSRSRSFSRSSRSHSRVSSRFSSRSRRSKSRSRSRRRHQRKYRRYSRSYSRSRSRSRSRRYRERRYGFTRRYYRSPSRYRSRSRSRSRSRGRSYCGRAYAIARGQRYYGFGRTVYPEEHSRWRDRSRTRSRSRTPFRLSEKDRMELLEIAKTNAAKALGTTNIDLPASLRTVPSAKETSRGIGVSSNGAKPELSEKVTEDGTRNPNEKPTQQRSIAFSSNNSVAKPIQKSAKAATEEASSRSPKIDQKKSPYGLWIPI [S20L]
with no effect | MSNYVNDMWPGSPQEKDSPSTSRSGGSSRLSSRSRSRSFSRSSRSHSRVSSRFSSRSRRSKSRSRSRRRHQRKYRRYSRSYSRSRSRSRSRRYRERRYGFTRRYYRSPSRYRSRSRSRSRSRGRSYCGRAYAIARGQRYYGFGRTVYPEEHSRWRDRSRTRSRSRTPFRLSEKDRMELLEIAKTNAAKALGTTNIDLPASLRTVPSAKETSRGIGASSNGAKPELSEKVTEDGTRNPNEKPTQQRSIAFSSNNSVAKPIQKSAKAATEEASSRSPKIDQKKSPYGLWIPI [V216A]

Variants of: B3
Conditions: with clk3_human CLK3, P49761
Chain of clk3_human CLK3, P49761 (P49761 whole entry, looked up): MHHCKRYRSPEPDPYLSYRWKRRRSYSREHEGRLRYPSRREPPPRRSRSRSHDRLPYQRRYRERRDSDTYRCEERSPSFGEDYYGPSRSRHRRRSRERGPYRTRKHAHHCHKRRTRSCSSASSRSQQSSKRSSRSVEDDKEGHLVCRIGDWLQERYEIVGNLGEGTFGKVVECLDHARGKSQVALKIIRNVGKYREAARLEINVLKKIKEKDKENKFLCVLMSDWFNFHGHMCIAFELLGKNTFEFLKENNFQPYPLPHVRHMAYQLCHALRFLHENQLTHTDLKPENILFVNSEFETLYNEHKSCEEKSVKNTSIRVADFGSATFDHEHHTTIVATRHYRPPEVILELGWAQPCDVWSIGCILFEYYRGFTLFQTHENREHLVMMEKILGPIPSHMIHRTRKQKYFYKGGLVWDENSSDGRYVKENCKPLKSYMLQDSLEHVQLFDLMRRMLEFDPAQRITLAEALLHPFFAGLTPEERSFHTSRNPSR

effect of a mutation on the interaction | Variant
with no effect | MSNYVNDMWPGSPQEKDSPSTSRSGGSSRLSSRSRSRSFSRSSRSHSRVSSRFSSRSRRSKSRSRSRRRHQRKYRRYSRSYSRSRSRSRSRRYRERRYGFTRRYYRSPSRYRSRSRSRSRSRGRSYCGRAYAIARGQRYYGFGRTVHPEEHSRWRDRSRTRSRSRTPFRLSEKDRMELLEIAKTNAAKALGTTNIDLPASLRTVPSAKETSRGIGVSSNGAKPELSEKVTEDGTRNPNEKPTQQRSIAFSSNNSVAKPIQKSAKAATEEASSRSPKIDQKKSPYGLWIPI [Y147H]
with no effect | MSNYVNDMWPGSPQEKDSPLTSRSGGSSRLSSRSRSRSFSRSSRSHSRVSSRFSSRSRRSKSRSRSRRRHQRKYRRYSRSYSRSRSRSRSRRYRERRYGFTRRYYRSPSRYRSRSRSRSRSRGRSYCGRAYAIARGQRYYGFGRTVYPEEHSRWRDRSRTRSRSRTPFRLSEKDRMELLEIAKTNAAKALGTTNIDLPASLRTVPSAKETSRGIGVSSNGAKPELSEKVTEDGTRNPNEKPTQQRSIAFSSNNSVAKPIQKSAKAATEEASSRSPKIDQKKSPYGLWIPI [S20L]
with no effect | MSNYVNDMWPGSPQEKDSPSTSRSGGSSRLSSRSRSRSFSRSSRSHSRVSSRFSSRSRRSKSRSRSRRRHQRKYRRYSRSYSRSRSRSRSRRYRERRYGFTRRYYRSPSRYRSRSRSRSRSRGRSYCGRAYAIARGQRYYGFGRTVYPEEHSRWRDRSRTRSRSRTPFRLSEKDRMELLEIAKTNAAKALGTTNIDLPASLRTVPSAKETSRGIGASSNGAKPELSEKVTEDGTRNPNEKPTQQRSIAFSSNNSVAKPIQKSAKAATEEASSRSPKIDQKKSPYGLWIPI [V216A]

Variants of: B4
Conditions: with cep63_human CEP63, Q96MT8
Chain of cep63_human CEP63, Q96MT8 (Q96MT8 whole entry): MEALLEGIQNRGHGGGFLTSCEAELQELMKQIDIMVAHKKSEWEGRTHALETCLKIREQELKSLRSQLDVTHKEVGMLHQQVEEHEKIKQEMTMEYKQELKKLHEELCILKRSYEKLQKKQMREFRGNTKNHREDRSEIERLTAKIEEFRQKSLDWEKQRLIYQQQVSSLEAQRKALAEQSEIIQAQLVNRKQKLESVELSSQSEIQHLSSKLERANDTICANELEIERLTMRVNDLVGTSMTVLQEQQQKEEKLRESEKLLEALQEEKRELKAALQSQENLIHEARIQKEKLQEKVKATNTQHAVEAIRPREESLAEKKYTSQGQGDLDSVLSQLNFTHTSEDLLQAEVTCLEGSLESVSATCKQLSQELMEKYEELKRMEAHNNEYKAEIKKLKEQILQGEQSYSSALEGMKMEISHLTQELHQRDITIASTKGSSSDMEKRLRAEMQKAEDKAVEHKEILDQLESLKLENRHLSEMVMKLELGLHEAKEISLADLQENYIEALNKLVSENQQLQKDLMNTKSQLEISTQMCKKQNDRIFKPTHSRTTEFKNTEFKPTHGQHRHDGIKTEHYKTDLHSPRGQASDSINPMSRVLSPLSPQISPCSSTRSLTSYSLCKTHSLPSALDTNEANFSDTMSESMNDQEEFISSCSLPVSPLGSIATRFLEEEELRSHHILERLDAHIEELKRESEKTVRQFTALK

effect of a mutation on the interaction | Variant
with no effect | E254K

Variants of: B4
Conditions: with nutm1_human NUTM1, Q86Y26
Chain of nutm1_human NUTM1, Q86Y26 (Q86Y26 whole entry): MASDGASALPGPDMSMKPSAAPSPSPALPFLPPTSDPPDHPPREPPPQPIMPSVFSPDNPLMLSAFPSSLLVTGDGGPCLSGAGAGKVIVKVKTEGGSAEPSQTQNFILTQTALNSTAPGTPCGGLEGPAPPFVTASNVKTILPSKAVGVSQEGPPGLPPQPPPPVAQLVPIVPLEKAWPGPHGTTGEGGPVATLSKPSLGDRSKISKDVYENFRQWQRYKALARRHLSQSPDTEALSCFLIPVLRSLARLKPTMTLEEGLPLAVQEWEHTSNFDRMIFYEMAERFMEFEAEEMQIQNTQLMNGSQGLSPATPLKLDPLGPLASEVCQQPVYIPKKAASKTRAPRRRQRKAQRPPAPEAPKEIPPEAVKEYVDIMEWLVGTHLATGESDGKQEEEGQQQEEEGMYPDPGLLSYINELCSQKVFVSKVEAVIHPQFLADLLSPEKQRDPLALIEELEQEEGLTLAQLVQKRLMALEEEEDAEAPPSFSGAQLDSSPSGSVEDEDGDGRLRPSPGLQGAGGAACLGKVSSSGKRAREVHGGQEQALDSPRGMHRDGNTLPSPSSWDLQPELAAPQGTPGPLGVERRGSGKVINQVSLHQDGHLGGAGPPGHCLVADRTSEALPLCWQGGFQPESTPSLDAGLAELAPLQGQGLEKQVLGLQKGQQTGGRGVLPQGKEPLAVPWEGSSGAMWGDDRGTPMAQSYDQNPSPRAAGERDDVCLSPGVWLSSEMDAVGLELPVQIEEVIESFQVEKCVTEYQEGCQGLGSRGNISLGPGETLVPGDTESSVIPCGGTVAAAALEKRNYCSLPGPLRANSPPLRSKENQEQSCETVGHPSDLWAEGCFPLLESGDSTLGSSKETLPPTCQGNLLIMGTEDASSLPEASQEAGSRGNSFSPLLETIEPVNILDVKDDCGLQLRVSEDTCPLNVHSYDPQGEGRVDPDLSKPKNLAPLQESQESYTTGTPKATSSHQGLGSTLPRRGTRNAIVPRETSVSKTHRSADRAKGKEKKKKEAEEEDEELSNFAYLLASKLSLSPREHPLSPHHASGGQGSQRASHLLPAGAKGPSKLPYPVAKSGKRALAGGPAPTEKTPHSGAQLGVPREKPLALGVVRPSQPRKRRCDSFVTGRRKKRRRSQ

effect of a mutation on the interaction | Variant
with no effect | E254K
